This series deals with the molecule itself. Description: SEC; Superdex 75 HR 10/30 analytical column calibrated with a Gel Filtration LMW Calibration Kit; absorbance at 280 nm; apparent molecular weights from elution volumes. On the technique in general: In gel filtration, larger molecules generally elute earlier.

B1: RsmA (regulator of secondary metabolism), His-tagged (natural protein)
chain: not shown
notes: also called CsrA homolog; wild-type RsmA protein; source: purification from E. coli
As for B1, the “stoichiometry N” value was 2.

B2: RsmA-R44A mutant (natural protein)
chain: MLILTRRVGETLMVGDDVTVTVLGVKGNQVRIGVNAPKEVAVHAEEIYQRIQKEKDQEPNH
notes: RsmA of Pseudomonas aeruginosa with R44A; also called the mutant
Turning to B2, the binding result is recorded as “binds”.

For orientation: stoichiometry N means the number of molecules, sites or subunits per partner or assembly.

(Values after article PMC4066749, “A sequence-based approach for prediction of CsrA/RsmA targets in bacteria with experimental validation in Pseudomonas aeruginosa” (Nucleic Acids Research, 2014).)
